Experiments:
[1] = biological target: apoa1_human APOA1 (UniProt P02647)
[2] = biological target: apoa1_human APOA1 (UniProt P02647); remark: listed apart in the source

apoa1_human APOA1, sequence (P02647 whole entry): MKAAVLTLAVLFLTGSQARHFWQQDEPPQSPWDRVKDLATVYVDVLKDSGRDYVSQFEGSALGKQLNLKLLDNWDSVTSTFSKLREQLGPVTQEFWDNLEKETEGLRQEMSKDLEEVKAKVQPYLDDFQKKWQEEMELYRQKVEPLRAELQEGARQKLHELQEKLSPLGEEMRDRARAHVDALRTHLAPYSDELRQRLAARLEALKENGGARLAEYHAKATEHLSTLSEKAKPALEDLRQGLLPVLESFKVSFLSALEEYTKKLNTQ

- effect of a mutation on the interaction [1]: disrupting interaction strength
- effect of a mutation on the interaction [2]: disrupting interaction strength
Substance: Phospholipid-transporting ATPase ABCA1 (Homo sapiens), O95477 K939M;K1952M
